Assay results reported in the supplement of paper PMC11908140.

B1: library; numbered along this chain (parent)
chain: MRKPRAAVGSGHRKQAASQEGRQKHAKNNSQAKPSACDGLARQPEEVVLQASVSSYHLFRDVAEVTAFRGSLLSWYDQEKRDLPWRRRAEDEMDLDRRAYAVWVSEVMLQQTQVATVINYYTGWMQKWPTLQDLASASLEEVNQLWAGLGYYSRGRRLQEGARKVVEELGGHMPRTAETLQQLLPGVGRYTAGAIASIAFGQATGVVDGNVARVLCRVRAIGADPSSTLVSQQLWGLAQQLVDPARPGDFNQAAMELGATVCTPQRPLCSQCPVESLCRARQRVEQEQLLASGSLSGSPDVEECAPNTGQCHLCLPPSEPWDQTLGVVNFPRKASRKPPREESSATCVLEQPGALGAQILLVQRPNSGLLAGLWEFPSVTWEPSEQLQRKALLQELQRWAGPLPATHLRHLGEVVHTFSHIKLTYQVYGLALEGQTPVTTVPPGARWLTQEEFHTAAVSTAMKKVFRVYQGQQPGTCMGSKRSQVSSPCSRKKPRMGQQVLDNFFRSHISTDAHSLNSAAQ

Variants of: B1
Test: 8OG:A repair function score (normalized; synonymous = 0, nonsense = -1) (normalized log-likelihood score); higher = more repair activity (WT-like)
Settings: with 8OG:A DNA repair reporter (GFP) in HEK-293 MUTYH KO cells
Summary of the method: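 Lentiviral MUTYH cDNA NNN codon-scan libraries were expressed in MUTYH knockout HEK-293 cells with 10 pg/ml doxycycline, and the cells received an 8OG:A GFP repair reporter together with mCherry. At 72 h, viable mCherry+ cells went into GFP+ (repair) or GFP− bins, three replicates per tile, before tile amplicons were sequenced. A repair function score was then built from per-tile Rosace fitness scores, anchored on the synonymous and nonsense distributions. Synonymous medians sat at 0 and nonsense at -1, and variants under 300 counts per million at the start were left out.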
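Further: cells sorted at 72 h after reporter transfection.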

8OG:A repair function score: each site, then its substitutions
L237: V -0.463 | C -0.474 | R -0.738 | Q -0.281 | Y -0.0407 | H -0.433 | D -0.692 | P -0.931 | N -0.583 | I 0.105 | T -0.184 | W -0.397 | S -0.551 | A -0.321 | K -0.816 | G -0.848 | E -0.684 | F -0.257 | M -0.32
A238: L -0.816 | F -0.858 | T -0.413 | N -0.887 | P -1.01 | S -0.0308 | Q -0.254 | K -0.887 | Y -0.881 | M 0.0352 | W -0.956 | I -0.365 | H -0.805 | G -0.603 | V 0.0238 | D -0.714 | C -0.249 | E -0.688 | R -1.01
D243: Y -0.667 | A -0.387 | G -0.755 | Q -0.829 | K -0.914 | W -0.67 | F -0.786 | I -0.858 | C -0.276 | P -0.554 | M -0.753 | L -0.818 | V -0.767 | S -0.358 | H -0.31 | N -0.739 | T -0.727 | E -0.293 | R -0.99
P244: D -0.291 | C -0.39 | A -0.238
Q240: Y -0.969 | S -0.945 | W -1 | F -0.939 | T -0.972 | I -0.959 | E -0.919 | P -1 | A -0.971 | G -1 | L -0.948 | K -0.932 | R -0.97 | H -0.94 | M -0.867 | V -0.936 | C -1.01 | N -0.999 | D -0.979
L241: V -0.358 | F -0.872 | E -0.98 | A -0.581 | G -0.827 | P -0.994 | N -0.946 | S -0.626 | I -0.264 | Q -0.948 | H -1.01 | Y -0.893 | K -1.01 | W -0.384 | D -0.924 | R -1.03 | C -0.37 | T -0.51 | M -0.522
G236: H -0.00754 | K 0.114 | A 0.149 | Q 0.356 | P -0.455 | T -0.0456 | N 0.18 | L -0.0738 | F 0.0301 | S 0.254 | E 0.29 | I 0.00703 | C 0.116 | Y -0.152 | D 0.156 | R 0.107 | V -0.0226
Q239: L -0.403 | E -0.065 | C -0.184 | A -0.104 | R -0.232 | T -0.143 | P -0.953 | I -0.589 | H 0.289 | V -0.529 | Y -0.309 | S -0.175 | K -0.0216 | M -0.146 | G -0.228 | W -0.74 | N 0.162 | D 0.103 | F -0.526
V242: D -0.978 | T -0.488 | E -0.964 | I 0.0144 | H -0.806 | Y -0.964 | A -0.526 | K -0.949 | Q -0.763 | C -0.39 | W -1.01 | P -0.961 | S -0.772 | N -0.576 | M -0.625 | G -0.916 | L -0.288 | R -0.886 | F -0.874
W235: S -0.516 | G -0.61 | H -0.343 | I -0.342 | Y -0.177 | Q -0.314 | P -1 | T -0.416 | L -0.406 | N -0.368 | K -0.51 | M -0.389 | V -0.467 | R -0.496
